Laboratory results reported in patent publication US20250268941A1 (AUTOLUS, published 2025).
Values belong to the molecule of their own block, whether it stands above or below them.

Columns and labels:
[1] = target: BCMA on the cell surface (SupT1.BCMAhigh, SupT1.BCMAlow, MM.1s, JeKo-1 cells) (human) (UniProt Q02223); assay: cell-based or functional assay
BCMA-Avi = target: T1, BCMA-Avi (Homo sapiens, UniProt Q02223, biotinylated at the AviTag (implied by detection with streptavidin-APC); position not given); assay: flow cytometry of live CD3+ T cells transduced with CAT-41BB-ζ alone, stained with BCMA-AviTag plus streptavidin-APC; the staining concentration is not given [a]
T1 construct: soluble recombinant staining reagent; also called BCMA-AviTag; BCMA-Avi/Strep-APC
T1 sequence (recombinant BCMA with AviTag, looked up): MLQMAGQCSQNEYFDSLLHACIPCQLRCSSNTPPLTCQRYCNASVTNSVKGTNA

soluble BCMA ectodomain [2] = target: T2, soluble BCMA ectodomain (human, UniProt Q02223 1-54); assay: SPR, soluble BCMA ectodomain as analyte
T2 construct: extracellular domain
T2 sequence (looked up): T1 sequence (recombinant BCMA with AviTag, looked up)
Protocol: (§1) FIG. 6—Surface plasmon resonance sensogram of binding kinetics between D8 IgG and BCMA is shown. BCMA starting concentration was 50 nM with serial dilutions to 0.19 nM.
(§2) D8 IgG binding to soluble BCMA ectodomain was also studied using surface plasmon resonance (FIG. 6).

soluble BCMA ectodomain [3] = target: T2, soluble BCMA ectodomain; assay: SPR, BCMA 50 nM serially diluted to 0.19 nM
Protocol: as §1, §2

Molecule: bb2121 CAR
- viable SupT1 BCMAlow targets remaining, 24 h co-culture, E:T 1:8 [1]: 21.1%

Molecule: LCAR-B38M CAR
- viable SupT1 BCMAlow targets remaining, 24 h co-culture, E:T 1:8 [1]: 25.5%

- binding result (BCMA-Avi): no binding
B1: CAT-41BB-ζ CAR (other)
chain: QVQLQQSGPELVKPGASVKISCKASGYAFSSSWMNWVKQRPGKGLEWIGRIYPGDEDTNYSGKFKDKATLTADKSSTTAYMQLSSLTSEDSAVYFCARSLLYGDYLDYWGQGTTLTVSSGGGGSGGGGSGGGGSQIVLTQSPAIMSASPGEKVTMTCSASSSVSYMHWYQQKSGTSPKRWIYDTSKLASGVPDRFSGSGSGTSYFLTINNMEAEDAATYYCQQWNINPLTFGAGTKLELKRSDPTTTPAPRPPTPAPTIASQPLSLRPEACRPAAGGAVHTRGLDFACDIYIWAPLAGTCGVLLLSLVITLYCKRGRKKLLYIFKQPFMRPVQTTQEEDGCSCRFPEEEEGGCELRVKFSRSADAPAYQQGQNQLYNELNLGRREEYDVLDKRRGRDPEMGGKPRRKNPQEGLYNELQKDKMAEAYSEIGMKGERRRGKGHDGLYQGLSTATKDTYDALHMQALPPR
notes: Expressed on primary human T cells; also called CAT19 CAR; CAT19CAR using Campana architecture

- Kd (soluble BCMA ectodomain [2]): 126 pM
- koff (soluble BCMA ectodomain [3]): 0.00433 s⁻¹
B2: D8 IgG (antibody, V domains shown)
VH: EVQLVESGGGLVQPGRSLKLSCAASGFIFSDYNMAWVRQAPKKGLEWVATIIYDGSSTNHGDSVKGRFTISRDNAKSTLYLQMDSLRSEDTATYYCATRPGPFAYWGQGTLVTVS
VL: DVVLTQTPPTLSATIGQSVSISCRSSQSLLHSNGNTYLHWLLQRPGQSPQFLIYLVSGLGSGVPNRFSGSGSGTDFTLKISGVEAEDLGIYYCVHGTHAWTVGGGTKLELK
